Experimental data: patent US12337027B2, “Methods and compositions relating to lung repair” (THE CHILDREN'S MEDICAL CENTER CORPORATION, priority 2018, dated 2025)
Entries after “also recorded” stand apart in the source; their conditions may differ.

Key:
[1] = test system: C57B16 mice following left pneumonectomy; assay: Compensatory lung growth after left pneumonectomy (lung volume by water displacement); type: in vivo; details: for lung growth: compensatory lung growth after pneumonectomy
Experimental: (§1) C57B16 mice were randomized to receive daily intraperitoneal injection of either saline or soluble fms-like tyrosine kinase 1 (sFlt1) at a dose of 20 mcg/kg following left pneumonectomy. On post-operative day 4, mice underwent pulmonary function studies and were subsequently euthanized for lung volume measurement. Lung volume was determined by water displacement method. […] This therapy can potentially improve lung growth and pulmonary functions in patients suffering from severe pulmonary hypoplasia.
(§2) sFlt1 was administered to mice according to the experimental design depicted in FIG. 6. […] The dose response to sFlt1 was investigated (FIG. 8) and, in mice, 20 mcg/kg sFlt1 was the optimal dosing regimen (FIG. 9).

mice = assay: Exercise tolerance tests; type: in vivo
[2] = test system: C57B16 mice following left pneumonectomy; assay: Pulmonary function studies after left pneumonectomy; type: in vivo
Experimental: as §1, §2

liver and spleen = test system: liver and spleen; parameters: species or system mice; details: mouse, in vivo
Experimental: LW/BW: liver weight/body weight, SW/BW: spleen weight/body weight.
as §1

VEGF = VEGF levels after sFlt1 administration; type: in vivo, mice; details: FIG. 11
HIF-2α = HIF-2α levels after sFlt1 administration (incl. immunohistochemistry); type: in vivo, mice; details: FIG. 11, 12
Source text: FIG. 12 depicts immunohistochemical measurements of HIF-2α levels.

[3] = test system: mice after 70% partial hepatectomy; assay: Liver regeneration after 70% partial hepatectomy; type: in vivo; details: 10, 20, or 50 ug/kg daily intraperitoneal vs saline, POD 4
Experimental: Mice underwent 70% partial hepatectomy and were randomized to receive saline (control) or one of 3 doses of Flt1 (10, 20, or 50 ug/kg) via intraperitoneal injection. Treatment was performed daily and mice were euthanized on post-operative day (POD) 4 for organ harvest. Liver samples were weighed and normalized against body weight.

[4] = sFlt1 20 mcg/kg daily intraperitoneal vs saline, post-operative day 4

Row | Molecule | effect of HIF-2α inhibition on sFlt1-induced lung growth ([1]; PT-2385 given with sFlt1, FIG. 15) | effect of HIF-2α inhibition on sFlt1 effect on exercise tolerance (mice; PT-2385 given with sFlt1, FIG. 16, 17) | lung growth [1] | lung growth ([1]; listed as soluble VEGF receptor) | optimal dosing regimen (dose response) ([1]; in mice, FIG. 9) | lung volume (LV/BW: lung volume/body weight) [1, 4] | inspiratory capacity (IC/BW) [2, 4] | pulmonary compliance [2, 4] | pulmonary elastance [2, 4] | pulmonary mechanics ([2]; sFlt1 at 20 mcg/kg, FIG. 10) | organ mass of liver (LW/BW: liver weight/body weight) (liver and spleen) | organ mass of spleen (SW/BW: spleen weight/body weight) (liver and spleen) | levels of VEGF (VEGF) | levels of HIF-2α (HIF-2α) | baseline activity in exercise tolerance tests (mice; FIG. 16) | liver weight normalized against body weight [3]
1 | CS(=O)(=O)c1ccc(Oc2cc(F)cc(C#N)c2)c2c1[C@H](O)C(F)(F)C2 [PT-2385, reference compound] | blunt the effects of sFlt1 | blunt the effects of sFlt1 | – | – | – | – | – | – | – | – | – | – | – | – | – | –
2 | sFlt1: soluble variant of the VEGF receptor encoded by the Flt1 gene (protein, listed as Homo sapiens) MVSYWDTGVLLCALLSCLLLTGSSSGSKLKDPELSLKGTQHIMQAGQTLHLQCRGEAAHKWSLPEMVSKESERLSITKSACGRNGKQFCSTLTLNTAQANHTGFYSCKYLAVPTSKKKETESAIYIFISDTGRPFVEMYSEIPEIIHMTEGRELVIPCRVTSPNITVTLKKFPLDTLIPDGKRIIWDSRKGFIISNATYKEIGLLTCEATVNGHLYKTNYLTHRQTNTIIDVQISTPRPVKLLRGHTLVLNCTATTPLNTRVQMTWSYPDEKNKRASVRRRIDQSNSHANIFYSVLTIDKMQNKDKGLYTCRVRSGPSFKSVNTSVHIYDKAFITVKHRKQQVLETVAGKRSYRLSMKVKAFPSPEVVWLKDGLPATEKSARYLTRGYSLIIKDVTEEDAGNYTILLSIKQSNVFKNLTATLIVNVKPQIYEKAVSSFPDPALYPLGSRQILTCTAYGIPQPTIKWFWHPCNHNHSEARCDFCSNNEESFILDADSNMGNRIESITQRMAIIEGKNKMASTLVVADSRISGIYICIASNKVGTVGRNISFYITDVPNGFHVNLEKMPTEGEDLKLSCTVNKFLYRDVTWILLRTVNNRTMHYSISKQKMAITKEHSITLNLTIMNVSLQDSGTYACRARNVYTGEEILQKKEITIRGEHCNKKAVFSRISKFKSTRNDCTTQSNVKH | – | – | increases lung growth; also recorded: accelerated lung growth | accelerated compensatory lung growth | 0.02 mg/kg | significantly higher lung volume; also recorded: increases lung volume | significantly higher; also recorded: improve; also recorded: increases inspiratory capacity | improves | improves | improved pulmonary mechanics | does not change | does not change | unexpectedly increases | unexpectedly increases | increased baseline activity | no difference in liver weight
